The experiment addresses 39S large mitoribosome subunit (mtLSU) (human (endogenous in HEK293T and 143B)). Nature of the experiment: co-sedimentation.

B1: GTPBP5 (natural protein)
chain: MAPARCFSARLRTVFQGVGHWALSTWAGLKPSRLLPQRASPRLLSVGRADLAKHQELPGKKLLSEKKLKRYFVDYRRVLVCGGNGGAGASCFHSEPRKEFGGPDGGDGGNGGHVILRVDQQVKSLSSVLSRYQGFSGEDGGSKNCFGRSGAVLYIRVPVGTLVKEGGRVVADLSCVGDEYIAALGGAGGKGNRFFLANNNRAPVTCTPGQPGQQRVLHLELKTVAHAGMVGFPNAGKSSLLRAISNARPAVASYPFTTLKPHVGIVHYEGHLQIAVADIPGIIRGAHQNRGLGSAFLRHIERCRFLLFVVDLSQPEPWTQVDDLKYELEMYEKGLSARPHAIVANKIDLPEAQANLSQLRDHLGQEVIVLSALTGENLEQLLLHLKVLYDAYAEAELGQGRQPLRW
In the case of B1, the percent of total GTPBP5 co-sedimenting was determined as 60%.

The values are drawn from PMC7430652.
